The results in this text go back to article PMC11601262.

This experiment addresses T1, CFP tagged hABHD5 (FCCS) (human), Q8WTS1.
T1 chain: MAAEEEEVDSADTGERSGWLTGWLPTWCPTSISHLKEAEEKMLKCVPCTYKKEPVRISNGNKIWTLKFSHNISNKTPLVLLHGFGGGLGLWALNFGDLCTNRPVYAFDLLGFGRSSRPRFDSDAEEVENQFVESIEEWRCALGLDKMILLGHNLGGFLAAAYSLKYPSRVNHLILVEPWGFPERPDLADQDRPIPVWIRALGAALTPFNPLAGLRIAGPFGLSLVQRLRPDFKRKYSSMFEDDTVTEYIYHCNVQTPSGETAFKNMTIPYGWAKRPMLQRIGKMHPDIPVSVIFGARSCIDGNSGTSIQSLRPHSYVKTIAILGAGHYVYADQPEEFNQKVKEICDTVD
The experiment can be described thus: fluorescence cross-correlation spectroscopy. Particulars: remark: other sources report otherwise.

B1: hPNPLA3 WT-EYFP, Q9NST1 1-481 (natural protein)
chain: MYDAERGWSLSFAGCGFLGFYHVGATRCLSEHAPHLLRDARMLFGASAGALHCVGVLSGIPLEQTLQVLSDLVRKARSRNIGIFHPSFNLSKFLRQGLCKCLPANVHQLISGKIGISLTRVSDGENVLVSDFRSKDEVVDALVCSCFIPFYSGLIPPSFRGVRYVDGGVSDNVPFIDAKTTITVSPFYGEYDICPKVKSTNFLHVDITKLSLRLCTGNLYLLSRAFVPPDLKVLGEICLRGYLDAFRFLEEKGICNRPQPGLKSSSEGMDPEVAMPSWANMSLDSSPESAALAVRLEGDELLDHLRLSILPWDESILDTLSPRLATALSEEMKDKGGYMSKICNLLPIRIMSYVMLPCTLPVESAIAIVQRLVTWLPDMPDDVLWLQWVTSQVFTRVLMCLLPASRSQMPVSSQQASPCTPEQDWPCWTPCSPKGCPAETKAEATPRSILRSSLNFFLGNKVPAGAEGLSTFPSFSLEKSL
Turning to B1, the percent of ABHD5 co-diffusing with PNPLA3 worked out at 24% and the percent of PNPLA3 co-diffusing with ABHD5 worked out at 78%.
